The record followed here is patent US20150344570A1 (published 2015).

Residue numbers refer to the chain shown, from its start. Names and notes keep the numbering of the source. Like-named read-outs stand apart in the source and are kept apart here.

The target in experiment [1] is T1, FcγRIIIa V extracellular domain with C-terminal His tag (human, UniProt P08637 17-208).
T1 construct: extracellular domain; Soluble receptor, V158 allotype; also called FcgRIIIa V; FcgRIIIaV; not shown: His tag at the C terminus
T1 sequence (P08637 17-208 F176V): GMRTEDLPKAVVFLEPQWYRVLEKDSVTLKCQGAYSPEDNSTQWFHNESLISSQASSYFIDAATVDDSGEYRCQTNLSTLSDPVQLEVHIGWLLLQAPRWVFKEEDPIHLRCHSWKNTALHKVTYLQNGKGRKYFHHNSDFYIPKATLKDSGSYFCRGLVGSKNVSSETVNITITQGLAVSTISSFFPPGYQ
The experiment is described as follows: SPR (Biacore), antibody captured on chip, soluble FcγR as analyte, 1:1 Langmuir fit. Here is the method: (§1) Specifically, H240-Hl134 (SEQ ID NO: 88) resulting from introduction of L234Y/L235Y/G236W/H268D/S298A into H240-Hl033 and H240-Kn132 (SEQ ID NO: 89) resulting from introduction of K326D/A330M/K334E into H240-Kn033 were constructed according to the method described in Reference Example 1.
(§2) Analysis of interaction between objective antibody and the FcγR was carried out using Biacore T100 (GE Healthcare), Biacore T200, Biacore A100, and Biacore 4000. HBS-EP+ (GE Healthcare) was used as the running buffer, and the measurement temperature was set to 25° C. Chips produced by immobilizing the antigen peptide by the amine coupling method to a Series S sensor Chip CM5 (GE Healthcare), chips produced by allowing preliminarily biotinylated antigen peptides to interact with and immobilize onto a Series S Sensor Chip SA (certified) (GE Healthcare), chips produced by immobilizing Protein L (ACTIGEN, BioVision) to Series S Sencor Chip CM5 (GE Healthcare), or chips produced by immobilizing Protein A/G (Thermo Scientific) to Series S Sencor Chip CM5 (GE Healthcare) were used. Antibodies of interest were captured onto these chips, and allowed to interact to each FcγR diluted with running buffer. To regenerate and repeatedly use the chip, the antibodies captured onto the chip were washed off by reacting 10 mM glycine-HCl, pH 1.5.
Background: In SPR one partner is held on a chip, and binding of the other changes the refractive index at the surface.

For experiment [2], the target named is T2, FcγRIIIa F extracellular domain with C-terminal His tag (human, UniProt P08637 17-208).
T2 construct: extracellular domain; Soluble receptor, F158 allotype; also called FcgRIIIa F; FcgRIIIaF; not shown: His tag at the C terminus
T2 sequence (P08637 17-208): as the sequence (P08637 17-208 F176V) above, with V160F counted along it
The description is as above. Here is the method: as §1, §2

For experiment [3], the target named is T3, FcgRIIIa F (human, UniProt P08637 17-208).
T3 construct: extracellular domain; polymorphic site made after J. Clin. Invest; also called FcγRIIIa F
T3 sequence (P08637 17-208): as the sequence (P08637 17-208 F176V) above, with V160F counted along it
Nature of the experiment: SPR (Biacore), antibody captured, FcgR as analyte. Here is the method:
(§3) H240-Kn113 (SEQ ID NO: 92) resulting from introduction of Y234E and Y235N into H240-Kn072, H240-Kn115 (SEQ ID NO: 93) resulting from introduction of S239M into H240-Kn072, and H240-Kn125 (SEQ ID NO: 94) resulting from introduction of Y235Q and S239M into H240-Kn072 were prepared according to the method described in Reference Example 1. H240-Kn113/H240-Hl076/L73-k0, H240-Kn115/H240-Hl076/L73-k0, and H240-Kn125/H240-Hl076/L73-k0 were prepared by combining H240-Hl076 as an H chain, L73-k0 as the L chain, and H240-Kn113, H240-Kn115, and H240-Kn125 as the other H chain according to the method described in Reference Example 1.
as §2

In a further experiment the target is T4, FcgRIa (human, UniProt P12314 16-292).
T4 construct: extracellular domain; also called FcγRIa; FcγRI
T4 sequence (P12314 16-292): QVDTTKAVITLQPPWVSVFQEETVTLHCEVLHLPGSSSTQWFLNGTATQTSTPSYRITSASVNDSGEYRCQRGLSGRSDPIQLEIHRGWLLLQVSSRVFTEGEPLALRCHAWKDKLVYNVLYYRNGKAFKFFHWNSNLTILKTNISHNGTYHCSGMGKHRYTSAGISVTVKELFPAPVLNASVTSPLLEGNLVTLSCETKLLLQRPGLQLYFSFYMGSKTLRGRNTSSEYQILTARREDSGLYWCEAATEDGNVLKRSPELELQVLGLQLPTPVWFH
The experiment is described as follows: SPR (Biacore), antibody captured, FcgR as analyte. Here is the method:
as §3, §2

The target in experiment [4] is T5, FcgRIIa R (human, UniProt P12318 34-217).
T5 construct: extracellular domain; also called FcγRIIa R; FcγRIIa type R
T5 sequence (looked up): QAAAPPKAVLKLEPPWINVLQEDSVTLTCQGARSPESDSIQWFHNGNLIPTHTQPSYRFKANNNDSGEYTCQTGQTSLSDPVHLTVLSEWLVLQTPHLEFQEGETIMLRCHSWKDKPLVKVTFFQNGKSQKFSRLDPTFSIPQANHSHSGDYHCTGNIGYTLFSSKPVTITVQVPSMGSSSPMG
Nature of the experiment: SPR (Biacore), antibody captured, FcgR as analyte. Here is the method: as §3, §2

The next experiment deals with T6, FcgRIIb (human, UniProt P31994 43-217).
T6 construct: extracellular domain; also called FcγRIIb; CD32B
T6 sequence (looked up): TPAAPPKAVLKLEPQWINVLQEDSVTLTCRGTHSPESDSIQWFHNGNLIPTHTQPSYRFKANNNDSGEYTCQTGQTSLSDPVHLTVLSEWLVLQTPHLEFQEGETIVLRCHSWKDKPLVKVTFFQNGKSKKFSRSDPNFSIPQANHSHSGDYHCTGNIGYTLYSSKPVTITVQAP
The experiment is described as follows: SPR (Biacore), antibody captured, FcgR as analyte. Here is the method: as §3, §2

Experiment [5] concerns the target T7, FcgRIIIa V (human, UniProt P08637 17-208).
T7 construct: extracellular domain; polymorphic site made after J. Clin. Invest; also called FcγRIIIa V
Nature of the experiment: SPR (Biacore), antibody captured, FcgR as analyte. Here is the method: as §3, §2

The target of experiment [6] is T8, FcgRIIa H (human, UniProt P12318 34-217).
T8 construct: extracellular domain; also called FcγRIIa H; FcγRIIa type H
T8 sequence (looked up): T5 sequence (looked up) with R134H
Nature of the experiment: SPR (Biacore), antibody captured, FcgR as analyte. Here is the method: as §3, §2

For experiment [7], the target named is T3, FcgRIIIa F. Nature of the experiment: SPR (Biacore), antibody captured, FcgR as analyte. Here is the method: (§4) Then, H240-Hl136 (SEQ ID NO: 97) resulting from introduction of L234Y/L235Y/G236W/H268D/S298A/A327D into H240-Hl033 and H240-Kn133 (SEQ ID NO: 98) resulting from introduction of D270E/K326D/A330K/K334E into H240-Kn033 were constructed according to the method described in Reference Example 1.
as §2, with “buffer.” for “buffer. To regenerate and repeatedly use the chip, the antibodies captured onto the chip were washed off by reacting 10 mM glycine-HCl, pH 1.5.”
This is another data set of the same source.

The target of experiment [8] is T5, FcgRIIa R. Nature of the experiment: SPR (Biacore), antibody captured, FcgR as analyte. Here is the method: as §4
as §2, with “buffer.” for “buffer. To regenerate and repeatedly use the chip, the antibodies captured onto the chip were washed off by reacting 10 mM glycine-HCl, pH 1.5.”
This is another data set of the same source.

Experiment [9] deals with T7, FcgRIIIa V. Nature of the experiment: SPR (Biacore), antibody captured, FcgR as analyte. Here is the method:
as §4
as §2, with “buffer.” for “buffer. To regenerate and repeatedly use the chip, the antibodies captured onto the chip were washed off by reacting 10 mM glycine-HCl, pH 1.5.”
The source holds these as a separate data set.

The target of experiment [10] is T8, FcgRIIa H. The experiment is described as follows: SPR (Biacore), antibody captured, FcgR as analyte. The protocol: as §4
as §2, with “buffer.” for “buffer. To regenerate and repeatedly use the chip, the antibodies captured onto the chip were washed off by reacting 10 mM glycine-HCl, pH 1.5.”
The source holds these as a separate data set.

T7 sequence (P08637 17-208 F176V limits assumed): as the sequence (P08637 17-208 F176V) above

B1: H240-Kn061/H240-Hl134/L73-k0 (antibody, human IgG1, kappa)
heavy 1: QDQLVQSGAEVKKPGASVKVSCKASGFNIKDTYIQWVRQAPGQGLEWMGRIDPLRKQTKYREKFEGRVTITADTSTNTAYMELSSLRSEDTAVYYCVRSGREFDYWGQGTLVTVSSASTKGPSVFPLAPSSKSTSGGTAALGCLVKDYFPEPVTVSWNSGALTSGVHTFPAVLQSSGLYSLSSVVTVPSSSLGTQTYICNVNHKPSNTKVDKKVEPKSCDKTHTCPPCPAPEYYWGPSVFLFPPKPKDTLMISRTPEVTCVVVDVSDEDPEVKFNWYVDGVEVHNAKTKPREEQYNATYRVVSVLTVLHQDWLNGKEYKCKVSNKALPAPIEKTISKAKGQPREPQVCTLPPSRDELTKNQVSLWCLVKGFYPSDIAVEWESNGQPENNYKTTPPVLDSDGSFFLYSKLTVDKSRWQQGNVFSCSVMHEALHNHYTQKSLSLSP
heavy 2: B1 heavy 1 with C348Y, D355C, W365S, L367A, Y406V
light: DIQMTQSPSSLSASVGDRVTITCRASQDIHKYIAWYQQKPGQAPRLLIQYTSTLQPGVPSRFSGSGSGTDYTFTISSLQPEDIATYYCLQYEQLRTFGGGTKVEIKRTVAAPSVFIFPPSDEQLKSGTASVVCLLNNFYPREAKVQWKVDNALQSGNSQESVTEQDSKDSTYSLSSTLTLSKADYEKHKVYACEVTHQGLSSPVTKSFNRGEC
notes: Anti-epiregulin IgG1, knobs-into-holes; called homodimerized as both H chains carry L234Y/L235Y/G236W/H268D/S298A
Usually Kd stands for the constant that tells how readily two partners part at equilibrium. High values mean weaker binding, low ones tighter binding. Regarding B1, the equilibrium dissociation constant (Kd) was found to be 86 nM in [1] and 660 nM in experiment [2].

B2: H240-Kn113/H240-Hl076/L73-k0 (antibody, human IgG1, kappa)
heavy 1: B1 heavy 1 with Y233E, Y234N, D269E
heavy 2: QDQLVQSGAEVKKPGASVKVSCKASGFNIKDTYIQWVRQAPGQGLEWMGRIDPLRKQTKYREKFEGRVTITADTSTNTAYMELSSLRSEDTAVYYCVRSGREFDYWGQGTLVTVSSASTKGPSVFPLAPSSKSTSGGTAALGCLVKDYFPEPVTVSWNSGALTSGVHTFPAVLQSSGLYSLSSVVTVPSSSLGTQTYICNVNHKPSNTKVDKKVEPKSCDKTHTCPPCPAPELLGGPSVFLFPPKPKDTLMISRTPEVTCVVVDVSHEEPEVKFNWYVDGVEVHNAKTKPREEQYNSTYRVVSVLTVLHQDWLNGKEYKCKVSNDALPMPIEETISKAKGQPREPQVYTLPPSRCELTKNQVSLSCAVKGFYPSDIAVEWESNGQPENNYKTTPPVLDSDGSFFLVSKLTVDKSRWQQGNVFSCSVMHEALHNHYTQKSLSLSP
light: B1 light
notes: H240-Kn113: Y234E and Y235N introduced into H240-Kn072
For B2, the Kd with FcgRIIIa F [3] is 1.7 nM; in the experiment with FcgRIa it was 0.21 nM; in the experiment with FcgRIIa R [4] it was 600 nM; in the experiment with FcgRIIb, 5000 nM; with FcgRIIIa V [5] it was 0.62 nM; with FcgRIIa H [6] it was 350 nM.

B3: H240-Kn133/H240-Hl068/L73-k0 (antibody, human IgG1, kappa)
heavy 1: B2 heavy 2 with M329K, Y348C, C355D, S365W, A367L, V406Y
heavy 2: B2 heavy 2 with M329K
light: B1 light
notes: Called homodimerized: both H chains have D270E/K326D/A330K/K334E
Turning to B3, the Kd with FcgRIIIa F [7] was 120 nM; with FcgRIIa R [8], 450 nM; with FcgRIIIa V [9], 14 nM; in the experiment with FcgRIIa H [10] it was 160 nM.

B4: H240-Kn067/H240-Hl136/L73-k0 (antibody, human IgG1, kappa)
heavy 1: B1 heavy 1 with A326D
heavy 2: B1 heavy 1 with A326D, C348Y, D355C, W365S, L367A, Y406V
light: B1 light
notes: Called homodimerized: both H chains have L234Y/L235Y/G236W/H268D/S298A/A327D
Regarding B4, the Kd stood at 960 nM in the experiment with FcgRIIIa F [7], 950 nM with FcgRIIa R [8], 340 nM in the experiment with FcgRIIIa V [9] and 2100 nM with FcgRIIa H [10].

B5: H240-Kn115/H240-Hl076/L73-k0 (antibody, human IgG1, kappa)
heavy 1: B1 heavy 1 with S238M, D269E
heavy 2: B2 heavy 2
light: B1 light
notes: H240-Kn115: S239M introduced into H240-Kn072
With B5, the Kd in the experiment with FcgRIIIa F [3] came to 1.4 nM; with FcgRIa it was 0.27 nM; with FcgRIIa R [4], 130 nM; with FcgRIIb, 1300 nM; in the experiment with FcgRIIIa V [5] it was 0.43 nM; in the experiment with FcgRIIa H [6], 62 nM.

B6: H240-Kn125/H240-Hl076/L73-k0 (antibody, human IgG1, kappa)
heavy 1: B1 heavy 1 with Y234Q, S238M, D269E
heavy 2: B2 heavy 2
light: B1 light
notes: H240-Kn125: Y235Q and S239M introduced into H240-Kn072
As for B6, the Kd in the experiment with FcgRIIIa F [3] came to 1.2 nM; in the experiment with FcgRIa, 0.24 nM; in the experiment with FcgRIIa R [4], 380 nM; with FcgRIIb, 4200 nM; with FcgRIIIa V [5], 0.37 nM; with FcgRIIa H [6] it was 190 nM.

B7: H240-Kn132/H240-Hl071/L73-k0 (antibody, human IgG1, kappa)
heavy 1: B2 heavy 2 with E269D, Y348C, C355D, S365W, A367L, V406Y
heavy 2: B2 heavy 2 with E269D
light: B1 light
notes: Anti-epiregulin IgG1, knobs-into-holes; called homodimerized as both H chains carry K326D/A330M/K334E
On to B7, for which the Kd in experiment [1] is 16 nM; in experiment [2], 77 nM.
